Data from PMC4210636 (Chemistry & Biology, 2014).

Key:
[1] = molecular target: T1, ADAMTS-5 lacking the C-terminal thrombospondin domain (UniProt Q9UNA0 262-874); test: steady-state enzyme inhibition kinetics
T1 sequence (looked up): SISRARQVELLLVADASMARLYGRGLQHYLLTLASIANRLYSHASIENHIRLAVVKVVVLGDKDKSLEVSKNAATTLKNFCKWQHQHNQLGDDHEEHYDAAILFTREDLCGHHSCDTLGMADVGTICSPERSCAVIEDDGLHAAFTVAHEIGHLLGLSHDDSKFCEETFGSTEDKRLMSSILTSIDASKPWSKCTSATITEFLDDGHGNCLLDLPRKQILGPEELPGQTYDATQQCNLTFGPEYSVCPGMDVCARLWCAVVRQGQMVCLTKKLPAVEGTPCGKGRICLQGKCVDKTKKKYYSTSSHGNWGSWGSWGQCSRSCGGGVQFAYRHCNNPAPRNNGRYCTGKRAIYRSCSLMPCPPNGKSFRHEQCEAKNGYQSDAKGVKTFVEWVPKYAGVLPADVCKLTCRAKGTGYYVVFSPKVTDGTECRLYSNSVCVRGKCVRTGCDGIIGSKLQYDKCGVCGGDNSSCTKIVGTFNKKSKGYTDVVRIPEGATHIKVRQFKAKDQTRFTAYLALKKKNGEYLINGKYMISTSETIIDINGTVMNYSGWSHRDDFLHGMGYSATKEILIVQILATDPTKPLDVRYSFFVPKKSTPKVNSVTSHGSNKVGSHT

[2] = molecular target: LRP-1 ectodomain (low-density lipoprotein receptor-related protein 1) (UniProt Q07954 20-4419); test: ELISA
Chain of LRP-1 ectodomain (low-density lipoprotein receptor-related protein 1) (Q07954 20-4419): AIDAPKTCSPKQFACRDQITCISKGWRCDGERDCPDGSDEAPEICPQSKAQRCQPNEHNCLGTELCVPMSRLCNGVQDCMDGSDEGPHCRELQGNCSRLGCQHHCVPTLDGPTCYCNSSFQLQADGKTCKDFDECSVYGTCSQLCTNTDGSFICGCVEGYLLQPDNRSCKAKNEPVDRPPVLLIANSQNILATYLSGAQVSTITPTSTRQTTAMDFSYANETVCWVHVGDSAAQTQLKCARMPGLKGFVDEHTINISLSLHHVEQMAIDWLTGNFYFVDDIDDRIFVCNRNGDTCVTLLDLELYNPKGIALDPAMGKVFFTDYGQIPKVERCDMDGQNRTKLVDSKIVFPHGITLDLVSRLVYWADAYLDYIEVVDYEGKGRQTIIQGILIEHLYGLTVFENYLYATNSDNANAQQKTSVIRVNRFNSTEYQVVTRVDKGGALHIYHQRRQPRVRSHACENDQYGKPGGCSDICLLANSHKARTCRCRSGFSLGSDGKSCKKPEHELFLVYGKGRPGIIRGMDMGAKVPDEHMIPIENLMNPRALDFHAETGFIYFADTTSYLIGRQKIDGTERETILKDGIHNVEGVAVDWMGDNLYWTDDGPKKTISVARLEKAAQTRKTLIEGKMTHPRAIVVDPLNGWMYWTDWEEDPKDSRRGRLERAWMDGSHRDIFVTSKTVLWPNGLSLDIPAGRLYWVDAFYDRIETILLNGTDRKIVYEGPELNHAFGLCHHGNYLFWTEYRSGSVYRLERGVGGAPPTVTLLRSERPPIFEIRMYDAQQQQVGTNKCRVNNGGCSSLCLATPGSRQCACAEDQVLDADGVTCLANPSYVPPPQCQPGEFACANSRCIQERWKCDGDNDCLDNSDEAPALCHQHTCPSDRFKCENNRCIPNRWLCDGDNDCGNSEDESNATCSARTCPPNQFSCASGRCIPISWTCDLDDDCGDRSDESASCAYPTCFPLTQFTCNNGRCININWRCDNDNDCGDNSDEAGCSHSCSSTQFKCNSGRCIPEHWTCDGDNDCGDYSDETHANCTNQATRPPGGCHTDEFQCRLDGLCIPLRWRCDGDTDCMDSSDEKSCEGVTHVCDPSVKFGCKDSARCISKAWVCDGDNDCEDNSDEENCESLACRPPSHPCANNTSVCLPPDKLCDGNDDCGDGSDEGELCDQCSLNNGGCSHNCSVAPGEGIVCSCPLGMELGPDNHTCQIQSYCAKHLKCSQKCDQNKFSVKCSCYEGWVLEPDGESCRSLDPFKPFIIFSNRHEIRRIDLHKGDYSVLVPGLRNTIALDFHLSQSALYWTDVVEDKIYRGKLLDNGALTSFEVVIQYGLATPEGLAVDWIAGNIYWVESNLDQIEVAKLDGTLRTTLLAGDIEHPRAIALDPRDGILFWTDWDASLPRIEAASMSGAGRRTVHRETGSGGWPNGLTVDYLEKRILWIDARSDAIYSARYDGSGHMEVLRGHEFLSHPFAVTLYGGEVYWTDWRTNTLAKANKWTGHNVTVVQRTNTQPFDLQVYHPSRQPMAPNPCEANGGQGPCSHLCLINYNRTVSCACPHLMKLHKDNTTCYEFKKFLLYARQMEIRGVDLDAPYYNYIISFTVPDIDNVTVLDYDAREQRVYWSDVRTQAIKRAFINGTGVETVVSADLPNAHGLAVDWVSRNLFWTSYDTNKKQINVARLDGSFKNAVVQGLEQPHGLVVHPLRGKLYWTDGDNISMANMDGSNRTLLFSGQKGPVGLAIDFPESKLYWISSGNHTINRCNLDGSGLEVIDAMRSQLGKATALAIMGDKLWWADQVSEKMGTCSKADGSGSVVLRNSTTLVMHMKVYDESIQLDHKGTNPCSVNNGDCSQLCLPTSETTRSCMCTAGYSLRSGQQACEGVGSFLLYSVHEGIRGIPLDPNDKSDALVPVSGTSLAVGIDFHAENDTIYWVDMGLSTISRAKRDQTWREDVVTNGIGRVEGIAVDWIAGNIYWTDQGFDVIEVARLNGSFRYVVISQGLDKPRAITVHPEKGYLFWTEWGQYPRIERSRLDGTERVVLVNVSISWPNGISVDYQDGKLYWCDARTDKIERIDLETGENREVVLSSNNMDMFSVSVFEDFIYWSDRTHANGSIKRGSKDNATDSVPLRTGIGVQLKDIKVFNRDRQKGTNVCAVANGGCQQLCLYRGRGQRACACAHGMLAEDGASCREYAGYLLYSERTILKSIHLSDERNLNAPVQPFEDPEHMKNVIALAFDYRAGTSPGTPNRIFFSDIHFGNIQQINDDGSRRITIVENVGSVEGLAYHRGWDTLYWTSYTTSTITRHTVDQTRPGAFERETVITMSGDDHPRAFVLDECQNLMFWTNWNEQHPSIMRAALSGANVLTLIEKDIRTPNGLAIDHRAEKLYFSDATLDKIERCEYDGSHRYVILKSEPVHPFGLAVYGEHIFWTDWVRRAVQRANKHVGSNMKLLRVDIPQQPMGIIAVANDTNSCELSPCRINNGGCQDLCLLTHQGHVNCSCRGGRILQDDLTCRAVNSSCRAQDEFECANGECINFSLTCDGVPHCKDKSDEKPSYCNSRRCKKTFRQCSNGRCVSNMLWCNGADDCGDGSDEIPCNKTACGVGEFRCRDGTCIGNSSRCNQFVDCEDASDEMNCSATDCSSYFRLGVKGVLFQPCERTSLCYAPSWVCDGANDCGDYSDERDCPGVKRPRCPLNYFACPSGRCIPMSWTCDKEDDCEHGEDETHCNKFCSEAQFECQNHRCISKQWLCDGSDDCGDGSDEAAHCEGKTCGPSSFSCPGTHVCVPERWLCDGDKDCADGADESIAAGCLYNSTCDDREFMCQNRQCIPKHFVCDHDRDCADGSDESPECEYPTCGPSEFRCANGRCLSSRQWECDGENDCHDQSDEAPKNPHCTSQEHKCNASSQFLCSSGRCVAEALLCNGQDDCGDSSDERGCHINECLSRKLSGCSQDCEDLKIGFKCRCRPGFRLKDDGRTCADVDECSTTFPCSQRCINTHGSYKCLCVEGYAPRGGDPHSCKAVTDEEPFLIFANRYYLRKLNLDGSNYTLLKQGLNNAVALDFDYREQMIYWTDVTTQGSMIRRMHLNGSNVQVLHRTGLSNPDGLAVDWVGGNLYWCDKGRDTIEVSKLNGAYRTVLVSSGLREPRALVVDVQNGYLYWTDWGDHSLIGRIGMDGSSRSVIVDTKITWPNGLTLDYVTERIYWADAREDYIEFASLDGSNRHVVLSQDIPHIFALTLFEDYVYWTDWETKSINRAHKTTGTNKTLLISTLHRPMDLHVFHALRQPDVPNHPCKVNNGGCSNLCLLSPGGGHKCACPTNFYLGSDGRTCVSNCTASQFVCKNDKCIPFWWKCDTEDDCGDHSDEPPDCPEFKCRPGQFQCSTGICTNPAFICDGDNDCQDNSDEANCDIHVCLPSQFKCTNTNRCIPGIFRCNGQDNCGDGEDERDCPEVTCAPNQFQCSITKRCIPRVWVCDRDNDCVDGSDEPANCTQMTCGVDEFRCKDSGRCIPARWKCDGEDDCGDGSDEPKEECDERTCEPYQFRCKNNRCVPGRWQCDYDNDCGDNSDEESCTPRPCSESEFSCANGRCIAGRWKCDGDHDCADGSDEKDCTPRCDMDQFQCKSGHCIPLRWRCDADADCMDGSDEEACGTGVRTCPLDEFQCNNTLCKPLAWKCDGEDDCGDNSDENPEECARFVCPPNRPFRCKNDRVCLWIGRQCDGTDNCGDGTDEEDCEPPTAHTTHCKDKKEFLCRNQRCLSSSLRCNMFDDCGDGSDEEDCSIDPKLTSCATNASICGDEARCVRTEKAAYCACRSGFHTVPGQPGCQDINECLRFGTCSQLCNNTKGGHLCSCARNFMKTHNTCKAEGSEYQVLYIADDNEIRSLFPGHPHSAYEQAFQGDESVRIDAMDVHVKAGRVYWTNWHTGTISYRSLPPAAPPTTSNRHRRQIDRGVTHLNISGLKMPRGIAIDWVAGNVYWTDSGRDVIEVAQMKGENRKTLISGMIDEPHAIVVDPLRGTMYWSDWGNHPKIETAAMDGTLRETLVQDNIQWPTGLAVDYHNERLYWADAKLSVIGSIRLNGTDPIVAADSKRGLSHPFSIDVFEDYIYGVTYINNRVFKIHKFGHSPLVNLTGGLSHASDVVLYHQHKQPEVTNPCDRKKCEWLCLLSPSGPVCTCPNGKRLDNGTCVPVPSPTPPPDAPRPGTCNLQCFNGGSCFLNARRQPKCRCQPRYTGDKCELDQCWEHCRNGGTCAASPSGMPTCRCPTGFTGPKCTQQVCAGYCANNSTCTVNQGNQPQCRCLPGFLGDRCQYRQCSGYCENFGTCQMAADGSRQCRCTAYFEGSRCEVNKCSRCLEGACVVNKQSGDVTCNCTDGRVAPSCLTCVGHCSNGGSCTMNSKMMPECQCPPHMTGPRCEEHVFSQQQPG

Ki [1]: 1.36 ± 0.02 nM | Kd [2]: 28 ± 6 nM
B1: C-terminally FLAG-tagged human TIMP-3 (tissue inhibitor of metalloproteinases 3) (natural protein, UniProt P35625 24-211, looked up)
chain: CTCSPSHPQDAFCNSDIVIRAKVVGKKLVKEGPFGTLVYTIKQMKMYRGFTKMPHVQYIHTEASESLCGLKLEVNKYQYLLTGRVYDGKMYTGLCNFVERWDQLTLSQRKGLNYRYHLGCNCKIKSCYYLPCFVTSKNECLWTDMLSNFGYPGYQSKHYACIRQKGGYCSWYRGWAPPDKSIINATDP
